Test results: publication PMC2396850

Target: various tetraspanins
Test: co-IP

B1: Tumour-associated antigen L6 (L6-Ag), endogenous (natural protein)
chain: MCYGKCARCIGHSLVGLALLCIAANILLYFPNGETKYASENHLSRFVWFFSGIVGGGLLMLLPAFVFIGLEQDDCCGCCGHENCGKRCAMLSSVLAALIGIAGSGYCVIVAALGLAEGPLCLDSLGQWNYTFASTEGQYLLDTSTWSECTEPKHIVEWNVSLFSILLALGGIEFILCLIQVINGVLGGICGFCCSHQQQYDC
  percent of the total L6-Ag co-immunoprecipitated (% of the total L6-Ag): 10 to 15
